Experimental findings from publication PMC5014334 are described below.

The assay concerns the target glutathione-S-transferase (GST)-CDK1 fusion protein (not stated (amplified from RNA of Vero cells; African green monkey from memory)).

In the case of “TrxA-His-p17 fusion protein (natural protein)”, the in vitro kinase assay: vimentin-Ser 56 phosphorylation of GST-vimentin (2 μM) by GST-CDK1 (10 nM) and GST-cyclin B1 (10 nM) with increasing TrxA-His-p17; Ki of p17 was 100 nM.
